Measurements reported in US20160272693A1 (ZEALAND PHARMA A S, published 2016).
*1 amine or outer side, *2 acyl side, *3 side chain or, on linkers, in order; H or OH if unused. Bridges are numbered along the chain shown (N, C = ends). [ ]: non-standard residue; d: D form. The star is where a group is joined. C20 diacid = O=C(O)CCCCCCCCCCCCCCCCCCC(=O)*; γGlu = O=C(O)[C@H](CCC(=O)[*:2])N[*:1]; Hyp = O=C(O)[C@@H]1C[C@@H](O)CN1; NMeI = CC[C@H](C)[C@H](NC)C(=O)O; Sar = CNCC(=O)O

T1: human amylin receptor 3 (hAMYR3), hCTR2 co-expressed with human receptor activity modifying protein 3 (hRAMP3) (human, UniProt P30988 25-474; O60896 24-148)
T1 sequence (looked up) 1: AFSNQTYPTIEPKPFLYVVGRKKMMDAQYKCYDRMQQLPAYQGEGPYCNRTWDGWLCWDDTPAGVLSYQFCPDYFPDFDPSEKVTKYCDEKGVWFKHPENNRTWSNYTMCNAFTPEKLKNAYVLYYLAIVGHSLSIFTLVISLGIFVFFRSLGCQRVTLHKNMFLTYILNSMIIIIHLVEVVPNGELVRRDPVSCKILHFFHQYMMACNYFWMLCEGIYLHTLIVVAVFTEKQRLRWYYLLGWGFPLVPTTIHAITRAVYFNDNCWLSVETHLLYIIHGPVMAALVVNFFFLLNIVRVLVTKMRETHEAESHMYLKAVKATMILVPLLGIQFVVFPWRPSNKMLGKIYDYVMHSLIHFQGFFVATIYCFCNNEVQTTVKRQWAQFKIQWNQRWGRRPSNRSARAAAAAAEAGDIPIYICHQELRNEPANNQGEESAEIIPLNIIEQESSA
T1 sequence (looked up) 2: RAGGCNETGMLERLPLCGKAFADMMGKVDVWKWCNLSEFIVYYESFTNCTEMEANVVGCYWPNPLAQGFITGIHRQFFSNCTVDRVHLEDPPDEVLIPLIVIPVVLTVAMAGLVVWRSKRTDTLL

B1: [19CD]-isoGlu-R-C( )-GTAT-C( )-ATERLAHFLVRSSF-Gly(Me)-A-Ile(Me)-LSSTEVGSSTP-NH2 (Compd. 38) (peptide)
peptide: {C20 diacid-γGlu}-RCGTATCATERLAHFLVRSSF[Sar]A[NMeI]LSSTEVGSSTP-NH2
modifications: disulfide 2-7
SMILES: CC[C@H](C)[C@@H](C(=O)N[C@@H](CC(C)C)C(=O)N[C@@H](CO)C(=O)N[C@@H](CO)C(=O)N[C@H](C(=O)N[C@@H](CCC(=O)O)C(=O)N[C@H](C(=O)NCC(=O)N[C@@H](CO)C(=O)N[C@@H](CO)C(=O)N[C@H](C(=O)N1CCC[C@H]1C(N)=O)[C@@H](C)O)C(C)C)[C@@H](C)O)N(C)C(=O)[C@H](C)NC(=O)CN(C)C(=O)[C@H](Cc1ccccc1)NC(=O)[C@H](CO)NC(=O)[C@H](CO)NC(=O)[C@H](CCCNC(=N)N)NC(=O)[C@@H](NC(=O)[C@H](CC(C)C)NC(=O)[C@H](Cc1ccccc1)NC(=O)[C@H](Cc1c[nH]cn1)NC(=O)[C@H](C)NC(=O)[C@H](CC(C)C)NC(=O)[C@H](CCCNC(=N)N)NC(=O)[C@H](CCC(=O)O)NC(=O)[C@@H](NC(=O)[C@H](C)NC(=O)[C@@H]1CSSC[C@H](NC(=O)[C@H](CCCNC(=N)N)NC(=O)CC[C@H](NC(=O)CCCCCCCCCCCCCCCCCCC(=O)O)C(=O)O)C(=O)NCC(=O)N[C@@H]([C@@H](C)O)C(=O)N[C@@H](C)C(=O)N[C@@H]([C@@H](C)O)C(=O)N1)[C@@H](C)O)C(C)C
B2: [19CD]-isoGlu-R-C( )-GTAT-C( )-ATERLADFLTRSSF-Gly(Me)-A-Ile(Me)-LSSTEVGSST-Hyp-NH2 (Compd. 41) (peptide)
peptide: {C20 diacid}-[γGlu]RCGTATCATERLADFLTRSSF[Sar]A[NMeI]LSSTEVGSST[Hyp]-NH2
modifications: disulfide 3-8
SMILES: CC[C@H](C)[C@@H](C(=O)N[C@@H](CC(C)C)C(=O)N[C@@H](CO)C(=O)N[C@@H](CO)C(=O)N[C@H](C(=O)N[C@@H](CCC(=O)O)C(=O)N[C@H](C(=O)NCC(=O)N[C@@H](CO)C(=O)N[C@@H](CO)C(=O)N[C@H](C(=O)N1C[C@H](O)C[C@H]1C(N)=O)[C@@H](C)O)C(C)C)[C@@H](C)O)N(C)C(=O)[C@H](C)NC(=O)CN(C)C(=O)[C@H](Cc1ccccc1)NC(=O)[C@H](CO)NC(=O)[C@H](CO)NC(=O)[C@H](CCCNC(=N)N)NC(=O)[C@@H](NC(=O)[C@H](CC(C)C)NC(=O)[C@H](Cc1ccccc1)NC(=O)[C@H](CC(=O)O)NC(=O)[C@H](C)NC(=O)[C@H](CC(C)C)NC(=O)[C@H](CCCNC(=N)N)NC(=O)[C@H](CCC(=O)O)NC(=O)[C@@H](NC(=O)[C@H](C)NC(=O)[C@@H]1CSSC[C@H](NC(=O)[C@H](CCCNC(=N)N)NC(=O)CC[C@H](NC(=O)CCCCCCCCCCCCCCCCCCC(=O)O)C(=O)O)C(=O)NCC(=O)N[C@@H]([C@@H](C)O)C(=O)N[C@@H](C)C(=O)N[C@@H]([C@@H](C)O)C(=O)N1)[C@@H](C)O)[C@@H](C)O
B3: [19CD]-isoGlu-R-C( )-GTAT-C( )-ATERLAHFLNRSSF-Gly(Me)-A-Ile(Me)-LSSTEVGSFTP-NH2 (Compd. 40) (peptide)
peptide: {C20 diacid}-[γGlu]RCGTATCATERLAHFLNRSSF[Sar]A[NMeI]LSSTEVGSFTP-NH2
modifications: disulfide 3-8
SMILES: CC[C@H](C)[C@@H](C(=O)N[C@@H](CC(C)C)C(=O)N[C@@H](CO)C(=O)N[C@@H](CO)C(=O)N[C@H](C(=O)N[C@@H](CCC(=O)O)C(=O)N[C@H](C(=O)NCC(=O)N[C@@H](CO)C(=O)N[C@@H](Cc1ccccc1)C(=O)N[C@H](C(=O)N1CCC[C@H]1C(N)=O)[C@@H](C)O)C(C)C)[C@@H](C)O)N(C)C(=O)[C@H](C)NC(=O)CN(C)C(=O)[C@H](Cc1ccccc1)NC(=O)[C@H](CO)NC(=O)[C@H](CO)NC(=O)[C@H](CCCNC(=N)N)NC(=O)[C@H](CC(N)=O)NC(=O)[C@H](CC(C)C)NC(=O)[C@H](Cc1ccccc1)NC(=O)[C@H](Cc1c[nH]cn1)NC(=O)[C@H](C)NC(=O)[C@H](CC(C)C)NC(=O)[C@H](CCCNC(=N)N)NC(=O)[C@H](CCC(=O)O)NC(=O)[C@@H](NC(=O)[C@H](C)NC(=O)[C@@H]1CSSC[C@H](NC(=O)[C@H](CCCNC(=N)N)NC(=O)CC[C@H](NC(=O)CCCCCCCCCCCCCCCCCCC(=O)O)C(=O)O)C(=O)NCC(=O)N[C@@H]([C@@H](C)O)C(=O)N[C@@H](C)C(=O)N[C@@H]([C@@H](C)O)C(=O)N1)[C@@H](C)O
B4: [19CD]-isoGlu-R-C( )-GTAT-C( )-ATERLAHFLHRSSF-Gly(Me)-A-Ile(Me)-LSSTEVGSSTP-NH2 (Compd. 37) (peptide)
peptide: {C20 diacid}-[γGlu]RCGTATCATERLAHFLHRSSF[Sar]A[NMeI]LSSTEVGSSTP-NH2
modifications: disulfide 3-8
SMILES: CC[C@H](C)[C@@H](C(=O)N[C@@H](CC(C)C)C(=O)N[C@@H](CO)C(=O)N[C@@H](CO)C(=O)N[C@H](C(=O)N[C@@H](CCC(=O)O)C(=O)N[C@H](C(=O)NCC(=O)N[C@@H](CO)C(=O)N[C@@H](CO)C(=O)N[C@H](C(=O)N1CCC[C@H]1C(N)=O)[C@@H](C)O)C(C)C)[C@@H](C)O)N(C)C(=O)[C@H](C)NC(=O)CN(C)C(=O)[C@H](Cc1ccccc1)NC(=O)[C@H](CO)NC(=O)[C@H](CO)NC(=O)[C@H](CCCNC(=N)N)NC(=O)[C@H](Cc1c[nH]cn1)NC(=O)[C@H](CC(C)C)NC(=O)[C@H](Cc1ccccc1)NC(=O)[C@H](Cc1c[nH]cn1)NC(=O)[C@H](C)NC(=O)[C@H](CC(C)C)NC(=O)[C@H](CCCNC(=N)N)NC(=O)[C@H](CCC(=O)O)NC(=O)[C@@H](NC(=O)[C@H](C)NC(=O)[C@@H]1CSSC[C@H](NC(=O)[C@H](CCCNC(=N)N)NC(=O)CC[C@H](NC(=O)CCCCCCCCCCCCCCCCCCC(=O)O)C(=O)O)C(=O)NCC(=O)N[C@@H]([C@@H](C)O)C(=O)N[C@@H](C)C(=O)N[C@@H]([C@@H](C)O)C(=O)N1)[C@@H](C)O
B5: [19CD]-isoGlu-R-C( )-GTAT-C( )-ATERLAHFLQRSSF-Gly(Me)-A-Ile(Me)-LSSTEVGSFTP-NH2 (Compd. 39) (peptide)
peptide: {C20 diacid}-[γGlu]RCGTATCATERLAHFLQRSSF[Sar]A[NMeI]LSSTEVGSFTP-NH2
modifications: disulfide 3-8
SMILES: CC[C@H](C)[C@@H](C(=O)N[C@@H](CC(C)C)C(=O)N[C@@H](CO)C(=O)N[C@@H](CO)C(=O)N[C@H](C(=O)N[C@@H](CCC(=O)O)C(=O)N[C@H](C(=O)NCC(=O)N[C@@H](CO)C(=O)N[C@@H](Cc1ccccc1)C(=O)N[C@H](C(=O)N1CCC[C@H]1C(N)=O)[C@@H](C)O)C(C)C)[C@@H](C)O)N(C)C(=O)[C@H](C)NC(=O)CN(C)C(=O)[C@H](Cc1ccccc1)NC(=O)[C@H](CO)NC(=O)[C@H](CO)NC(=O)[C@H](CCCNC(=N)N)NC(=O)[C@H](CCC(N)=O)NC(=O)[C@H](CC(C)C)NC(=O)[C@H](Cc1ccccc1)NC(=O)[C@H](Cc1c[nH]cn1)NC(=O)[C@H](C)NC(=O)[C@H](CC(C)C)NC(=O)[C@H](CCCNC(=N)N)NC(=O)[C@H](CCC(=O)O)NC(=O)[C@@H](NC(=O)[C@H](C)NC(=O)[C@@H]1CSSC[C@H](NC(=O)[C@H](CCCNC(=N)N)NC(=O)CC[C@H](NC(=O)CCCCCCCCCCCCCCCCCCC(=O)O)C(=O)O)C(=O)NCC(=O)N[C@@H]([C@@H](C)O)C(=O)N[C@@H](C)C(=O)N[C@@H]([C@@H](C)O)C(=O)N1)[C@@H](C)O

Molecular target: T1, human amylin receptor 3 (hAMYR3), hCTR2 …
Test: cell-based or functional assay

| hAMYR3 EC50 (nM); cAMP induction [nM] | Binder |
| --- | --- |
| 0.12 | B1 |
| 0.34 | B2 |
| 0.19 | B3 |
| 0.07 | B4 |
| 0.22 | B5 |
